Measurements taken from patent US20220010021A1 (Sanofi, published 2022).
Positions count from the first letter of the chain named.

B1: Ab0395 (antibody, IgG4, V domains shown)
VH: QVTLKESGPVLVKPTETLTLTCTVSGFSLNNARVGVSWIRQPPGKALEWLAHIWSNDEKSYSTSLKSRLTISKDTSKSQVVLTMTNMDPVDTATYYCARSVVTGGYYYEGMDVWGQGTTVTVSS
VL: SYVLTQPPSVSVAPGQTARITCGGNNIGSESVHWYQQKPGQAPVLVVDDSDRPSGIPERFSGSNSGNTATLTISRVEAGDEADYYCQVFDGNSAHVVFGGGTKLTVLG
B2: Ab0381 (antibody, IgG4, V domains shown)
VH: B1 VH
VL: B1 VL with S93C, A94V, H95C
B3: Ab0380 (antibody, IgG4, V domains shown)
VH: B1 VH with H52S
VL: B1 VL with S1C, S93C, A94V
B4: Ab0372 (antibody, IgG4, V domains shown)
VH: B1 VH with H52W, W54F
VL: B1 VL with S1C, F89H, S93C, A94E
B5: Ab0371 (antibody, IgG4, V domains shown)
VH: B1 VH with H52W, W54F
VL: B1 VL with F89H, A94E
B6: Ab0379 (antibody, IgG4, V domains shown)
VH: B1 VH
VL: B1 VL with S1C, S93C, A94V
B7: Ab0373 (antibody, IgG4, V domains shown)
VH: B1 VH with H52W, W54F
VL: B1 VL with F89H, S93C, A94E, H95C
B8: Ab0378 (antibody, IgG4, V domains shown)
VH: B1 VH with H52S
VL: B1 VL with A94V
B9: Ab0376 (antibody, IgG4, V domains shown)
VH: B1 VH
VL: B1 VL with S93C, A94E, H95C
B10: Ab0377 (antibody, IgG4, V domains shown)
VH: B1 VH
VL: B1 VL with A94V
B11: Ab0375 (antibody, IgG4, V domains shown)
VH: B1 VH
VL: B1 VL with S1C, S93C, A94E
B12: Ab0374 (antibody, IgG4, V domains shown)
VH: B1 VH
VL: B1 VL with A94E
B13: human FGF21 (ligand)
chain: GHPIPDSSPLLQFGGQVRQRYLYTDDAQQTEAHLEIREDGTVGGAADQSPESLLQLKALKPGVIQILGVKTSRFLCQRPDGALYGSLHFDPEACSFRELLLEDGYNVYQSEAHGLPLHLPGNKSPHRDPAPRGPARFLPLPGLPPAPPEPPGILAPQPPDVGSSDPLSMVGPSQGRSPSYAS
B14: Ab0181 (antibody, IgG4, V domains shown)
VH: not shown
VL: SYVLTQPPSVSVAPGQTARITCGGNNIGSESVHWYQQKPGQAPVLVVYYDSDRPSGIPERFSGSNSGNTATLTISRVEAGDEADYYCQVWDGNSDHVVFGGGTKLTVLG
B15: Ab0213 (antibody, IgG4, V domains shown)
VH: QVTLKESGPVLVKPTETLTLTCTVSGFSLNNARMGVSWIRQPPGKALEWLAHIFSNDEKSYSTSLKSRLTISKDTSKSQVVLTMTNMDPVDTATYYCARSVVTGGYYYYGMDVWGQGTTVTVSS
VL: B14 VL with Y49D, D95E
B16: Ab0313 (antibody, IgG4, V domains shown)
VH: B1 VH with W54F
VL: B14 VL with Y49D, D91T, N93E
B17: Ab0209 (antibody, IgG4, V domains shown)
VH: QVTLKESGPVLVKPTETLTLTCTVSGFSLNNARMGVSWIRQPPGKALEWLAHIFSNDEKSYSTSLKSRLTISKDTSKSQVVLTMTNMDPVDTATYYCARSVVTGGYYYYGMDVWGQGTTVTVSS
VL: B14 VL
B18: Ab0300 (antibody, IgG4, V domains shown)
VH: B1 VH with W54F
VL: B14 VL with D91T
B19: Ab0303 (antibody, IgG4, V domains shown)
VH: B1 VH with W54F
VL: B14 VL with N25S, Y49D, D50E, D91T
B20: Ab0315 (antibody, IgG4, V domains shown)
VH: B1 VH with W54F
VL: B14 VL with D91T, N93E
B21: Ab0220 (antibody, IgG4, V domains shown)
VH: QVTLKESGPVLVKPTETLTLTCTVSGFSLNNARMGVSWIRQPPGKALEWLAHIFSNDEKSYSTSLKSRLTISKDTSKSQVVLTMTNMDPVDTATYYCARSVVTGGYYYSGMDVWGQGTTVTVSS
VL: B14 VL with Y49D, D95E
B22: Ab0192 (antibody, IgG4, V domains shown)
VH: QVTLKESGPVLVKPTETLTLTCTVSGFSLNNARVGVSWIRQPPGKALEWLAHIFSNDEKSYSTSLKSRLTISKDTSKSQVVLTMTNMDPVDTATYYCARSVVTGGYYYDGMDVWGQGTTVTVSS
VL: B14 VL with Y49D, D95E
B23: Ab0238 (antibody, IgG4, V domains shown)
VH: not shown
VL: B14 VL with Y49D, D95S
B24: Ab0319 (antibody, IgG4, V domains shown)
VH: B1 VH with W54F
VL: B14 VL with D50E, D91T, N93E
B25: Ab0304 (antibody, IgG4, V domains shown)
VH: B1 VH with W54F
VL: B14 VL with D50E, D91T
B26: Ab0211 (antibody, IgG4, V domains shown)
VH: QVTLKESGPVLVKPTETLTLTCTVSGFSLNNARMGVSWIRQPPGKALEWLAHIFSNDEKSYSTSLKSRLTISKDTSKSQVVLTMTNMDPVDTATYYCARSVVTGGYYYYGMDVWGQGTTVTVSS
VL: B14 VL with Y49D, D91T
B27: Ab0301 (antibody, IgG4, V domains shown)
VH: B1 VH with W54F
VL: B14 VL with N25S, D91T
B28: Ab0305 (antibody, IgG4, V domains shown)
VH: B1 VH with W54F
VL: B14 VL with N25S, D50E, D91T
B29: Ab0302 (antibody, IgG4, V domains shown)
VH: B1 VH with W54F
VL: B14 VL with Y49D, D50E, D91T
B30: Ab0320 (antibody, IgG4, V domains shown)
VH: B1 VH with W54F
VL: B14 VL with N25S, D50E, D91T, N93E
B31: Ab0237 (antibody, IgG4, V domains shown)
VH: not shown
VL: B14 VL with Y49D, D95A
B32: Ab0210 (antibody, IgG4, V domains shown)
VH: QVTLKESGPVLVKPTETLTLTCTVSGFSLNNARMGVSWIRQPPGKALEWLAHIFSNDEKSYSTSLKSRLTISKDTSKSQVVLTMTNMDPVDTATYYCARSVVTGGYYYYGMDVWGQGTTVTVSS
VL: B14 VL with Y49D, D50E
B33: Ab0316 (antibody, IgG4, V domains shown)
VH: B1 VH with W54F
VL: B14 VL with N25S, D91T, N93E
B34: Ab0206 (antibody, IgG4, V domains shown)
VH: B1 VH with W54F
VL: B14 VL with Y49D, D95E
B35: Ab0317 (antibody, IgG4, V domains shown)
VH: B1 VH with W54F
VL: B14 VL with Y49D, D50E, D91T, N93E
B36: Ab0199 (antibody, IgG4, V domains shown)
VH: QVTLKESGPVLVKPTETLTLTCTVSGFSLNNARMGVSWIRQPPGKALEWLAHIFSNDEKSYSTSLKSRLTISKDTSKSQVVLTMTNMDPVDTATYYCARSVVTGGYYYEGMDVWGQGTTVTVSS
VL: B14 VL with Y49D, D95E
B37: Ab0318 (antibody, IgG4, V domains shown)
VH: B1 VH with W54F
VL: B14 VL with N25S, Y49D, D50E, D91T, N93E
B38: Ab0185 (antibody, IgG4, V domains shown)
VH: not shown
VL: B14 VL with Y49D, D95E
B39: Ab0299 (antibody, IgG4, V domains shown)
VH: B1 VH with W54F
VL: B14 VL with N25S, Y49D, D91T
B40: Ab0386 (antibody, IgG4, V domains shown)
VH: B1 VH
VL: B14 VL with Y49D, W90F, D95S
B41: Ab0330 (antibody, IgG4, V domains shown)
VH: B1 VH with W54F
VL: B14 VL with N25S, Y49S, D50E, D91A, N93E
B42: Ab0350 (antibody, IgG4, V domains shown)
VH: B1 VH with W54F
VL: B14 VL with N25S, Y49E, D50E, D91A, N93S
B43: Ab0224 (antibody, IgG4, V domains shown)
VH: not shown
VL: B14 VL with Y49A
B44: Ab0415 (antibody, IgG4, V domains shown)
VH: B1 VH with W54F
VL: B14 VL with N25S, D50E, D91A, N93E

Target: human FGFR1c + KLB receptor complex on HEK293 iLite FGF21 reporter cells (human, UniProt P11362 22-822; Q86Z14 1-1044)
Experiment: cell-based or functional assay

Sequence of human FGFR1c + KLB receptor complex on HEK293 iLite FGF21 reporter cells (P11362 22-822, chain 1 of 2): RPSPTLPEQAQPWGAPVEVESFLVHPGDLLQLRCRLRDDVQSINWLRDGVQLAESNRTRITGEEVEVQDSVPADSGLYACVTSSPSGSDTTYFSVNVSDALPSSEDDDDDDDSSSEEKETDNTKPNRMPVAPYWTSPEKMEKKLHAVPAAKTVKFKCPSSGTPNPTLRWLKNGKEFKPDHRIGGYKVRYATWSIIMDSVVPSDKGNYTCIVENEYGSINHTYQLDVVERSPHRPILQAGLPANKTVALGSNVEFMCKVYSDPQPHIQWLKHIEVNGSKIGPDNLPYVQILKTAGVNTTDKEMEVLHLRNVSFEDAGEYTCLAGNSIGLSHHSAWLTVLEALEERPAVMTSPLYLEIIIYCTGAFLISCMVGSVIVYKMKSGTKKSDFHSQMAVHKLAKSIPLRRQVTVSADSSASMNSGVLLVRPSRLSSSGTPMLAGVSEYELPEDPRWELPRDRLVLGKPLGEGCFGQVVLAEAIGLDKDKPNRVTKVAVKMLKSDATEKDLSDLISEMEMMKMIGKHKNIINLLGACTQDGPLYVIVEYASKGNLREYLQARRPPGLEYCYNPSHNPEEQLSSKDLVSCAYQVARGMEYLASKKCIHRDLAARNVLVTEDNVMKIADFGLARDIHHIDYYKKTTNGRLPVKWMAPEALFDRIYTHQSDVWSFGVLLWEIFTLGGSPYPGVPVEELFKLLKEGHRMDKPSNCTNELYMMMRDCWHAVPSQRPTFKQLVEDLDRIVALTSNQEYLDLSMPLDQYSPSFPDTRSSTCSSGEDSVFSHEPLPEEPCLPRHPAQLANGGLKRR
Sequence of human FGFR1c + KLB receptor complex on HEK293 iLite FGF21 reporter cells (Q86Z14 whole entry, chain 2 of 2): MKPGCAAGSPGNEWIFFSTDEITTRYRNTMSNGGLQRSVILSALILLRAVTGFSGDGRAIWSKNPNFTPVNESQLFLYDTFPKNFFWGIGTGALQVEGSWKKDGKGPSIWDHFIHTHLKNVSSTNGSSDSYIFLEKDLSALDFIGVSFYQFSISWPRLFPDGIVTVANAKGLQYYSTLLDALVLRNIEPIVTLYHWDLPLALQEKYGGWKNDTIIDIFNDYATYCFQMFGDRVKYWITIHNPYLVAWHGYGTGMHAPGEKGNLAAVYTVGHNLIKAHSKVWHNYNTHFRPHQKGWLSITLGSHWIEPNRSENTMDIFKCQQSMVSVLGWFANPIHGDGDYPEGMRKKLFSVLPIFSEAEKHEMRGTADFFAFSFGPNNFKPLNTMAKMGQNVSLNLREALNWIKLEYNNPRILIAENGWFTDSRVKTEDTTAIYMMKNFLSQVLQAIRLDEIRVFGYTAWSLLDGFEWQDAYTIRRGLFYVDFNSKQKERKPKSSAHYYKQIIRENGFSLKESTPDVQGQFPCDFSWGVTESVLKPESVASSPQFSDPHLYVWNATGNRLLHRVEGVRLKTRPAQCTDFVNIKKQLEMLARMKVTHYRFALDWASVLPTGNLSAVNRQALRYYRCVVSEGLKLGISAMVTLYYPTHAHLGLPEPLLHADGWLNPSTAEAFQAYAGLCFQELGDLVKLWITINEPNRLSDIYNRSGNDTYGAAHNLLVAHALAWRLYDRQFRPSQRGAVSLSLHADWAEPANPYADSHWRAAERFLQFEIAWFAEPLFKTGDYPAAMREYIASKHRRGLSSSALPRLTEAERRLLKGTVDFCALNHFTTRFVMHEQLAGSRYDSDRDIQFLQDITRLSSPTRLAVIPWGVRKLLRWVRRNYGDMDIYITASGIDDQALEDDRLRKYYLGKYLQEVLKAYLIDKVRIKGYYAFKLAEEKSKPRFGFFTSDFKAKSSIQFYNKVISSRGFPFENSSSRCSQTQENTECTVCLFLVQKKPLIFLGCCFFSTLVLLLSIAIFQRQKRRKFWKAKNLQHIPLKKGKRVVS

Binder	EC50 [nM]	Emax [%]
B1	> 100	
B2	> 100	
B3	> 100	
B4	> 100	
B5	> 100	
B6	> 100	171
B7	> 100	
B8	> 100	
B9	> 100	
B10	> 100	
B11	> 100	
B12	> 100	
B13	0.35	4000
B14	0.03	2110
B15	> 100	122
B16	0.04	1130
B17	15.3	1960
B18	2.63	605
B19	19.2	809
B20	0.37	806
B21	22.2	1190
B22	3.67	1610

Binder	EC50 [nM]	Emax [%]
B23		856
B24	0.3	698
B25	11.4	686
B26	12	1600
B27	21.5	697
B28	208	647
B29	3.94	795
B30	1.29	699
B31	> 100	667
B32	5.31	2390
B33	0.45	730
B34	0.69	2640
B35	0.17	968
B36	> 100	736
B37	0.3	817
B38	0.06	2350
B39	0.1	1240
B40	> 100	
B41	0.15	932
B42	1.46	493
B43	0.05	2260
B44	0.3	674
